Measured values: patent publication US20260265354A1 (JIANGSU MABWELL HEALTH PHARMACEUTICAL R AND D, published 2026)
Changes are numbered by the printed parent chain.

T1: Nectin-2 (UniProt Q92692 32-360, limits assumed)
T1 construct: Bought recombinant protein; also called CD112; PVRL-2
T1 sequence (looked up): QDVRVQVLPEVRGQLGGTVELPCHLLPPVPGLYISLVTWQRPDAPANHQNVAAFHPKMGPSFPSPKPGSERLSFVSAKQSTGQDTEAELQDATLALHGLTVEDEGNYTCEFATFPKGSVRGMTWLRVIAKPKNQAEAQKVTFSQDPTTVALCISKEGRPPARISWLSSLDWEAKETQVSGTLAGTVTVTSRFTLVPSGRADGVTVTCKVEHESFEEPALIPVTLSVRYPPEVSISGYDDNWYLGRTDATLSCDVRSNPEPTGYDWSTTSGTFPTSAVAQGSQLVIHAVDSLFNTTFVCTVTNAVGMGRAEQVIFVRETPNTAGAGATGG

T2: Nectin-like-3 (UniProt Q8N3J6 25-367, limits assumed)
T2 construct: Bought recombinant protein; also called CADM2; IgSF4D
T2 sequence (looked up): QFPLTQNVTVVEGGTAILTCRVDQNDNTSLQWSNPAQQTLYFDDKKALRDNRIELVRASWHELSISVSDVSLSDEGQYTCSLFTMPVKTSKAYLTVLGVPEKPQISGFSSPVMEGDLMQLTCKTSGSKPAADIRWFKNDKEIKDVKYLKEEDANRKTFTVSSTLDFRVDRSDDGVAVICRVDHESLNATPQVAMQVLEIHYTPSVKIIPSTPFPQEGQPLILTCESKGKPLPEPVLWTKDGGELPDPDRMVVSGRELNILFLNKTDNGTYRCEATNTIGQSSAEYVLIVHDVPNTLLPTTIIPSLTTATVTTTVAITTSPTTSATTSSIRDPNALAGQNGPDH

T3: Nectin-like-2 (UniProt Q9BY67 45-374, limits assumed)
T3 construct: Bought recombinant protein; also called CADM1; IgSF4
T3 sequence (looked up): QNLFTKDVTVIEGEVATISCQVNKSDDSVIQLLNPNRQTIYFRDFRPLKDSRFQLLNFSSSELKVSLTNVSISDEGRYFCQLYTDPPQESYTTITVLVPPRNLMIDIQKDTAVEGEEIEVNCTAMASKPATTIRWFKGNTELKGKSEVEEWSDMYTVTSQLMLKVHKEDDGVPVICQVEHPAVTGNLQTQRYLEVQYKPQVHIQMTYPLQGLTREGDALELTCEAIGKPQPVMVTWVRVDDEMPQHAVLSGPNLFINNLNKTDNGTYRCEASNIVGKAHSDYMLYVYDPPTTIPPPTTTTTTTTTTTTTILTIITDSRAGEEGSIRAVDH

T4: Nectin-1 (UniProt Q15223 31-334, limits assumed)
T4 construct: Bought recombinant protein; also called CD111; PVRL-1
T4 sequence (looked up): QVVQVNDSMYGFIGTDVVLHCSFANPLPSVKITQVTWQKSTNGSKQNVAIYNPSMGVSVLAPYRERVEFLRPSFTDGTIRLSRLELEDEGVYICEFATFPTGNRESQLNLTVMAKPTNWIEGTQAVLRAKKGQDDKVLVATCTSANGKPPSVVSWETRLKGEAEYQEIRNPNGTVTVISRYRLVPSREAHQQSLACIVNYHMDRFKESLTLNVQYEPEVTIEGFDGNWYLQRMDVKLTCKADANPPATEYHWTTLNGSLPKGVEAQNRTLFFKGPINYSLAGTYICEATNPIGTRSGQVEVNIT

T5: Nectin-like-5 (UniProt P15151 21-343)
T5 construct: Bought recombinant protein; also called CD155; PVR
T5 sequence (looked up): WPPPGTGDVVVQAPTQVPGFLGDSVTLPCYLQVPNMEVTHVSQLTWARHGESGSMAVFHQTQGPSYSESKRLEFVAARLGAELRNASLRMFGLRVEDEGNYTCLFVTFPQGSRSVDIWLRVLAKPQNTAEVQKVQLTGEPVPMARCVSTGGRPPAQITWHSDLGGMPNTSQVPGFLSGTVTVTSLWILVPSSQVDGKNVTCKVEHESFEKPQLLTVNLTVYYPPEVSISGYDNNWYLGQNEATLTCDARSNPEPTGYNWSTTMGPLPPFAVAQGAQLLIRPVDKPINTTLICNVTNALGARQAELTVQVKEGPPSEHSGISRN

T6: Nectin-like-4 (UniProt Q8NFZ8 21-324, limits assumed)
T6 construct: Bought recombinant protein; also called CADM4; IgSF4C
T6 sequence (looked up): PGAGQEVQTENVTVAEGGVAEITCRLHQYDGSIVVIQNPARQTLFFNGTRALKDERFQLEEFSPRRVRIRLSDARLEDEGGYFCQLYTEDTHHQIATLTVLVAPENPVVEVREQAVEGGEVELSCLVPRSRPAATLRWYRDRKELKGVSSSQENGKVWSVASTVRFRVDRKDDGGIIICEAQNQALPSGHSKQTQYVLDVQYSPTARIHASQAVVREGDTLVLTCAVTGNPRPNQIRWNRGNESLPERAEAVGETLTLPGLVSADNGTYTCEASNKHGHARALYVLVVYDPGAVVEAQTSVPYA

B1: Antibody MM11 (antibody, mouse IgG1, kappa, V domains shown)
VH: DVQLQESGPGLVKPSQSLSLTCSVTGYSITSNFYWNWIRQFPGNRLEWMGYISYDGSNNYNPSLKNRISISRDTSKNQFFLKLNSVTTEDTATYYCVRADYWGQGTLVTVSA
VL: DTVMTQTPLSLPVSLGDQASISCRSSQSLESSDGHAYLNWYLQKPGQSPQLLIYRVSNRFSGVLHRFSGSGSGTDFTLKISRVEAEDLGVYFCLQFTHVPFTFGSGTKLEIKR
notes: Mouse monoclonal antibody from hybridoma; also called Nectin-4 mouse monoclonal antibody MM11; mouse antibody MM11
B2: Antibody R012 (antibody, V domains shown)
VH: SKSVEESGGRLVTPGTPLTLTCTVSGFSLSTYAMSWVRQAPGKGLEYIGIISGRGTTYYASWLKGRFTISKTSTTVDLKITSPTTEDTATYFCARDAGISDVYTGYFNLWGQGTLVTVSS
VL: QPVLAQLPSASAALGASAKLTCTLSSAHRTYTIAWYQQQQGEAPRYLMMLKSDGSYTKGTGVPDRFSGSSSGADRYLIISSVQAADEADYYCGADDSGGYVFGGGTQLTVTG
notes: Rabbit monoclonal antibody from phage display; also called Nectin-4 rabbit monoclonal antibody R012; rabbit antibody R012
B3: Antibody R036 (antibody, V domains shown)
VH: SQSVEESGGRLVTPGTPLTLTCTVSGFSLSSYAMSWVRQAPGKGLEYIGIIGGRGTTYYAIWAKGRFTISKTSTTVDLKITSPTTEDTATYFCARDAGTTYVGTTYVATGYFNLWGQGTLVTVSS
VL: B2 VL with A5T, L7P, R29K, M49I, K58R, A85D
notes: Rabbit monoclonal antibody from phage display; also called Nectin-4 rabbit monoclonal antibody R036; rabbit antibody R036

Biological target: T1, Nectin-2
Experiment: ELISA, coated antigen, antibody at 10 ng/ml
Description: (§1) Coating: Nectin-1, Nectin-2, Nectin-3, Nectin-4, Nectin-like-1, Nectin-like-2, Nectin-like-3, Nectin-like-4, and Nectin-like-5 were diluted to 5 μg/ml in coating buffer (carbonate buffer, pH 9.6) respectively. A 96-well plate was coat with 100 μl per well and incubated overnight at 2-8° C.;
(§2) Sample loading: The plate was taken out, patted dry, and washed twice with 200 μl/well of PBST, then patted dry. The Nectin-4 antibodies prepared in Example 1 (antibody MM11, antibody R012, and antibody R036) were diluted with 1% BSA/PBST to concentrations of 10 μg/ml, 1 μg/ml, 100 ng/ml, and 10 ng/ml, respectively. 1% BSA/PBST solution for dilution was set as a blank control. 100 μl per well was added to the 96-well plate, and incubated at room temperature for 2 hours;
(§3) Reaction termination and plate reading: 100 μl/well of 1 mol/L H3PO4 was added to terminate the reaction and the plated was read. The absorbances of wells in the plate at 450 nm with 650 nm as reference wavelength were read and recorded as OD_{450 nm-650 nm}.

Binder	OD detection value
B1	0.014 OD450 nm-650 nm
B2	0.008 OD450 nm-650 nm
B3	0.007 OD450 nm-650 nm

Biological target: T2, Nectin-like-3
Experiment: ELISA, coated antigen, antibody at 10 ng/ml
Description: as §1, §2, §3

Binder	OD detection value
B1	0.03 OD450 nm-650 nm
B2	0.009 OD450 nm-650 nm
B3	0.008 OD450 nm-650 nm

Biological target: T3, Nectin-like-2
Experiment: ELISA, coated antigen, antibody at 10 ng/ml
Description: as §1, §2, §3

Binder	OD detection value
B1	0.007 OD450 nm-650 nm
B2	0.008 OD450 nm-650 nm
B3	0.007 OD450 nm-650 nm

Biological target: T4, Nectin-1
Experiment: ELISA, coated antigen, antibody at 10 ng/ml
Description: as §1, §2, §3

Binder	OD detection value
B1	0.006 OD450 nm-650 nm
B2	0.008 OD450 nm-650 nm
B3	0.007 OD450 nm-650 nm

Biological target: T5, Nectin-like-5
Experiment: ELISA, coated antigen, antibody at 10 ng/ml
Description: as §1, §2, §3

Binder	OD detection value
B1	0.006 OD450 nm-650 nm
B2	0.009 OD450 nm-650 nm
B3	0.009 OD450 nm-650 nm

Biological target: T6, Nectin-like-4
Experiment: ELISA, coated antigen, antibody at 10 ng/ml
Description: as §1, §2, §3

Binder	OD detection value
B1	0.004 OD450 nm-650 nm
B2	0.008 OD450 nm-650 nm
B3	0.007 OD450 nm-650 nm
